Reference: publication PMC11674828

B1: (Escherichia coli K-12) (protein)
chain 1: MIRTMLQGKLHRVKVTHADLHYEG
chain 2: SCAIDQDFLDAAGILENEAIDIWNVTNGKRFSTYAIAAERGSRIISVNGAAAHCASVGDIVIIASFVTMPDEEARTWRPNVAYFEGDNEMKRTAKAIPVQVA
B2: (Thermus thermophilus HB8) (protein)
chain 1: MKRVMFHAKIHRATVTQADLHYVG
chain 2: SVTVDQDLLDAAGILPFEQVDIYDITNGARLTTYALPGERGSGVIGINGAAAHLVKPGDLVILVAYGVFDEEEARNLKPTVVLVDERNRILEVRKG
B3: (Corynebacterium glutamicum ATCC 13032) (protein)
chain 1: MLRTILGSKIHRATVTQADLDYVG
chain 2: SVTIDADLVHAAGLIEGEKVAIVDITNGARLETYVIVGDAGTGNICINGAAAHLINPGDLVIIMSYLQATDAEAKAYEPKIVHVDADNRIVALGNDLAEALPGSGLLTSRSI

substrate: N[C@@H](CC(=O)O)C(=O)O; test: purified protein; details: pH 8.0

| Protein | Km | kcat | kcat/Km |
| --- | --- | --- | --- |
| B1 | 7.9 ± 0.1 mM | 1.4 s⁻¹ | 180 M⁻¹ s⁻¹ |
| B2 | 8.5 ± 0.1 mM | 2.2 s⁻¹ | 260 M⁻¹ s⁻¹ |
| B3 | 4.3 ± 0.2 mM | 2.8 s⁻¹ | 650 M⁻¹ s⁻¹ |
